Laboratory results taken from publication PMC7108423 (The International Journal of Biochemistry & Cell Biology, 2005).
Like-named read-outs stand apart in the source and are kept apart here.

B1: His-tagged SARS-CoV ME (endodomain of M protein, aa102-221) (domain or fragment)
chain: FARTRSMWSFNPETNILLNVPLRGTIVTRPLMESELVIGAVIIRGHLRMAGHSLGRCDIKDLPKEITVATSRTLSYYKLGASQRVGTDSGFAAYNRYRIGNYKLNTDHAGSNDNIALLVQ

Tests used:
Assay in all cases: SPR
[1] = target: T1, recombinant SARS-CoV N protein (SARS coronavirus (SARS-CoV), UniProt P59595 1-422)
[2] = target: T1, recombinant SARS-CoV N protein; remark: listed apart in the source
[3] = target: T1, recombinant SARS-CoV N protein; remark: listed apart in the source
[4] = target: His-tagged N11 (aa283-422 of SARS-CoV N protein) (SARS coronavirus (SARS-CoV), UniProt P59595 283-422)
Chain of His-tagged N11 (aa283-422 of SARS-CoV N protein) (P59595 283-422): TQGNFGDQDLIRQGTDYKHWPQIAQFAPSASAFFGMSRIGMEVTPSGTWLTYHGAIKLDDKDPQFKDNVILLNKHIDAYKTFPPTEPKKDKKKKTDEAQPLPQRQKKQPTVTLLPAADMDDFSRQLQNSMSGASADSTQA

T1 sequence (P59595 whole entry): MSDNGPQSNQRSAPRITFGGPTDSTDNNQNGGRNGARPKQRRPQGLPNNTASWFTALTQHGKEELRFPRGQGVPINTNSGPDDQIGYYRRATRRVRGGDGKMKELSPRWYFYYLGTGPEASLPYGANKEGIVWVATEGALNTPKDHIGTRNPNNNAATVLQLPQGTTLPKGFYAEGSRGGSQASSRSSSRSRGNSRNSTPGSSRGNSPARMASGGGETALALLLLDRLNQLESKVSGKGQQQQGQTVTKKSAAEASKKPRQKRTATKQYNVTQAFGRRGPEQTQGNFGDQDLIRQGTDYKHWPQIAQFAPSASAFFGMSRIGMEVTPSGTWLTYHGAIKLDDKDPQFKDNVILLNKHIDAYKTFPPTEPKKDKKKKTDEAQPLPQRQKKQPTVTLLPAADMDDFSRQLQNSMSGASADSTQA

Binder	Kd [1] [µM]	koff [1] [s⁻¹]	kon [1] [M⁻¹ s⁻¹]	Kd [2] [µM]	Kd [3] [µM]	Kd [4] [µM]
RYRIGNYKLNTDHAGSNDNIALLVQ [MCT peptide (residues 197-221 of SARS-CoV M protein)]	75 ± 5	0.0394 ± 0.002	509 ± 42			
B1	0.55 ± 0.04	0.00223	4180	49.2	21.2	0.61 ± 0.06
